Results: the Human Domainome abundance scans (Beltran et al. 2025)
± gives the uncertainty stated by the source.

B1: Tumor protein 63, residues 545 to 610; numbered along this chain, Q9H3D4 (parent)
chain: TDCSIVSFLARLGCSSCLDYFTTQGLTTIYQIEHYSMDDLASLKIPEQFRHAIWKGILDHRQLHEF

Variants of: B1
Test: abundance fitness (aPCA) (normalised: wild type 0, dead -1); higher = more abundant; growth selection in yeast, the domain comes from the species named
Details: Homo sapiens
L40S gave an abundance fitness of -0.701 ± 0.038. With L40D the abundance fitness was -0.897 ± 0.096. With L40K the abundance fitness was -1.02 ± 0.3. Work on L40A yielded an abundance fitness of -0.967 ± 0.06. Variant L40W has an abundance fitness of -0.764 ± 0.047. Work on L40T yielded an abundance fitness of -0.933 ± 0.078. Work on L40G yielded an abundance fitness of -0.993 ± 0.041. Work on L40V yielded an abundance fitness of -0.122 ± 0.02. With L40I the abundance fitness was -0.037 ± 0.04. For L40C, the abundance fitness was -0.509 ± 0.066. In the case of L40Y, the abundance fitness is reported as -0.277 ± 0.041. For L40P, the abundance fitness was -0.893 ± 0.062. L40R showed an abundance fitness of -1.01 ± 0.067. For L40F, the abundance fitness was -0.043 ± 0.048. For L40M, the abundance fitness was -0.134 ± 0.041. L40N showed an abundance fitness of -0.888 ± 0.13. L40Q showed an abundance fitness of -0.909 ± 0.08. Variant L40E has an abundance fitness of -1.03 ± 0.11. For L43C, the abundance fitness was -0.171 ± 0.044. L43D gave an abundance fitness of -0.503 ± 0.042. With E33Q the abundance fitness was 0.013 ± 0.049. For E33G, the abundance fitness was -0.074 ± 0.019. With E33L the abundance fitness was -0.06 ± 0.027. In the case of E33N, the abundance fitness is reported as -0.117 ± 0.041. In the case of E33S, the abundance fitness is reported as -0.052 ± 0.036. E33Y showed an abundance fitness of -0.098 ± 0.064. For E33W, the abundance fitness was -0.046 ± 0.03. E33H showed an abundance fitness of -0.039 ± 0.044. E33K gave an abundance fitness of -0.112 ± 0.039. Work on E33T yielded an abundance fitness of -0.047 ± 0.045. With E33I the abundance fitness was -0.139 ± 0.069. E33P gave an abundance fitness of -0.772 ± 0.082. Work on A41I yielded an abundance fitness of 0.003 ± 0.041. Work on A41V yielded an abundance fitness of -0.002 ± 0.023. A41H showed an abundance fitness of -0.081 ± 0.047. With A41Y the abundance fitness was -0.103 ± 0.04. A41T showed an abundance fitness of -0.028 ± 0.032. Variant A41W has an abundance fitness of -0.111 ± 0.025. Variant A41S has an abundance fitness of -0.04 ± 0.033. A41K showed an abundance fitness of 0.008 ± 0.038. With A41G the abundance fitness was -0.043 ± 0.023. For A41D, the abundance fitness was -0.035 ± 0.03. Work on A41L yielded an abundance fitness of -0.06 ± 0.027. Work on A41Q yielded an abundance fitness of -0.008 ± 0.033. A41C gave an abundance fitness of 0.012 ± 0.036. In the case of A41E, the abundance fitness is reported as -0.012 ± 0.028. A41N showed an abundance fitness of -0.024 ± 0.091. A41P showed an abundance fitness of -0.734 ± 0.062. Work on A41F yielded an abundance fitness of -0.1 ± 0.034. In the case of A41M, the abundance fitness is reported as -0.088 ± 0.06. Work on A41R yielded an abundance fitness of -0.039 ± 0.025. Variant H34N has an abundance fitness of 0.02 ± 0.029. Work on H34V yielded an abundance fitness of -0.27 ± 0.027. With H34W the abundance fitness was -0.06 ± 0.025. With H34Q the abundance fitness was -0.041 ± 0.032. H34P gave an abundance fitness of -0.188 ± 0.026. Work on H34Y yielded an abundance fitness of -0.08 ± 0.029. H34F gave an abundance fitness of -0.102 ± 0.033. For H34S, the abundance fitness was -0.004 ± 0.025. Work on H34A yielded an abundance fitness of -0.037 ± 0.024. In the case of H34G, the abundance fitness is reported as -0.014 ± 0.018. H34M showed an abundance fitness of -0.044 ± 0.027. Variant H34K has an abundance fitness of -0.018 ± 0.04. Work on H34E yielded an abundance fitness of -0.007 ± 0.026. With H34I the abundance fitness was -0.372 ± 0.039. With H34C the abundance fitness was -0.141 ± 0.049. H34L gave an abundance fitness of -0.106 ± 0.023. For H34T, the abundance fitness was -0.084 ± 0.031. Work on S42E yielded an abundance fitness of 0.008 ± 0.026. S42G gave an abundance fitness of 0.051 ± 0.03. With S42V the abundance fitness was -0.011 ± 0.023. For S42H, the abundance fitness was -0.011 ± 0.021. In the case of S42K, the abundance fitness is reported as 0 ± 0.043. For S42N, the abundance fitness was 0.013 ± 0.025. With S42L the abundance fitness was -0.01 ± 0.021. In the case of S42A, the abundance fitness is reported as -0.019 ± 0.029. For S42T, the abundance fitness was -0.01 ± 0.026. Variant S42M has an abundance fitness of -0.001 ± 0.023. S42Q gave an abundance fitness of -0.001 ± 0.038. S42Y showed an abundance fitness of -0.069 ± 0.045. With S42W the abundance fitness was -0.097 ± 0.036. For S42D, the abundance fitness was 0.008 ± 0.041. For S42P, the abundance fitness was -0.176 ± 0.028.
